Data reported in patent EP1706427B1 (Crucell Holland B.V., dated 2011).
Residue numbers refer to the chain shown, from its start.

T1: murine CD1d (mouse, UniProt P11609 22-336)
T1 construct: whole, on cells; also called mouse thymocytes
T1 sequence (looked up): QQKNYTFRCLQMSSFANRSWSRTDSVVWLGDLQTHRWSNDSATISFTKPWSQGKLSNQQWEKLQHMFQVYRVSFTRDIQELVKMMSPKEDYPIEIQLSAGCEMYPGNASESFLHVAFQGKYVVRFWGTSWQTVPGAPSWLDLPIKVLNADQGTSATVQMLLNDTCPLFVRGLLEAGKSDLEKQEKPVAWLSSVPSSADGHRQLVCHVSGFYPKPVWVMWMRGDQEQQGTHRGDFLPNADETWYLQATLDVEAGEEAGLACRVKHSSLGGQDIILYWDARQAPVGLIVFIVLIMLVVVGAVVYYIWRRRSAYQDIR

B1: human anti-human CD1a monoclonal antibody CR2113 (antibody, human IgG1, kappa, V domains shown)
VH: QVQLQESGAGLLKPSETLSLTCAVYGGSFSGYYWSWIRQPPGKGLEWIGYIYYSGSTNYNPSLKSRVTISVDTSKNQFSLKLSSVTAADTAVYYCAKAPYMMYFDSWGQGTLVTVSS
VL: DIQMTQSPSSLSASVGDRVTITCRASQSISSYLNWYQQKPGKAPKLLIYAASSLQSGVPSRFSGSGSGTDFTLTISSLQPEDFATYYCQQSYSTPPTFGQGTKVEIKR
notes: Human IgG1 kappa made in 293T cells, purified over protein A and size exclusion; Used unlabelled and biotinylated; also called 02-113
B2: human anti-human CD1a monoclonal antibody CR2117 (antibody, human IgG1, kappa, V domains shown)
VH: EVQLVESGGGLVHPGGSLRLSCAGSGFTFSSYAMHWVRQAPGKGLEWVSAIGTGGGTYYADSVKGRFTISRDNAKNSLYLQMNSLRAEDTAVYYCARSTPWFSFDYWGQGTLVTVSS
VL: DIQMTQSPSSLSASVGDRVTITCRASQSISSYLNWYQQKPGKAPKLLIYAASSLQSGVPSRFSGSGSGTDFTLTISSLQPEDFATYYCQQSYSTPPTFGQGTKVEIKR
notes: Human IgG1 kappa made in 293T cells; Used unlabelled and biotinylated; also called 02-117
B3: human anti-human CD1a monoclonal antibody CR2118 (antibody, human IgG1, kappa, V domains shown)
VH: B2 VH with G52S, T99A, P100W, F102L, Y106S
VL: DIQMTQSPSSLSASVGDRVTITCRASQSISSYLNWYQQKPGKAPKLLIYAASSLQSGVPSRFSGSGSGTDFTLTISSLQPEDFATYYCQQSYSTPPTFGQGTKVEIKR
notes: Human IgG1 kappa made in 293T cells; Used unlabelled and biotinylated; also called 02-118
B4: human anti-human CD1a monoclonal antibody CR2114 (antibody, human IgG1, kappa, V domains shown)
VH: EVQLVESGGGLVQPGGSLRLSCAASGFTFSSYSMNWVRQAPGKGLEWVSYISSSSSTIYYADSVKGRFTISRDNAKNSLYLQMNSLRDEDTAVYYCAKETWWQSFDYWGQGTLVTVSS
VL: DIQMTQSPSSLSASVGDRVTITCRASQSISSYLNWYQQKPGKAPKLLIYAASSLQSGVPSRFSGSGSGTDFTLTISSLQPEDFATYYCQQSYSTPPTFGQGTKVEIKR
notes: Human IgG1 kappa made in 293T cells; Used unlabelled and biotinylated; also called 02-114

Key:
murine CD1d = target: T1, murine CD1d; test: flow cytometry on mouse thymocytes, Kolmogorov-Smirnov D-value
murine CD1a = target: T2, murine CD1a (mouse); test: as above
T2 construct: whole, on cells; no mouse CD1a entry is known to me; also called mouse thymocytes

Binder	D-value (murine CD1d)	D-value (murine CD1a)
B1	0	0
B2	0	0
B3	0	0
B4	0	0
